System: Myc-tagged MIF1/MSP58 protein (plasmid pCM562), expressed in CHO stable clone #34
Sequence (chain, as listed by the source): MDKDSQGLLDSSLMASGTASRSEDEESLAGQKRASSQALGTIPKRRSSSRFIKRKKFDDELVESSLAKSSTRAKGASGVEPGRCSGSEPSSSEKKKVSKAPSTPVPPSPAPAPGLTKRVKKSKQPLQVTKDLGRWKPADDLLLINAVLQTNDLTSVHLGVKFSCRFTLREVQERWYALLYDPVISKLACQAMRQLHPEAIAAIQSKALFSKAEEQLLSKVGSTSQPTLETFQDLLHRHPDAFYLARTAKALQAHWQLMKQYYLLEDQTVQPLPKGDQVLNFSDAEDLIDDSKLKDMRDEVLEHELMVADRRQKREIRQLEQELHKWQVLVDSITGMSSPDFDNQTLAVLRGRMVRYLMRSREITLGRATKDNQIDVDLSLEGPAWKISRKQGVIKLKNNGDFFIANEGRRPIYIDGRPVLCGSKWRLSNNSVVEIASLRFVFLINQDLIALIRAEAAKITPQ

In the case of “MEKK1 of CHO cells (cellular, activated by sorbitol)”, the “JNK activation (in vitro GST-Jun(1-223) phosphorylation) after 200 mM sorbitol, CHOMIF1 #34 against CHOpCDNA3” value is reported as “Cells expressing MIF1 showed an inhibition of JNK activation (revelated by weak GST-JUNphosphorylation) in response to sorbitol incubation”.
